From PMC8142856 (Cell, 2021) come the findings set out here.

B1: SARS-CoV-2 nsp14 (enzyme)
chain: AENVTGLFKDCSKVITGLHPTQAPTHLSVDTKFKTEGLCVDIPGIPKDMTYRRLISMMGFKMNYQVNGYPNMFITREEAIRHVRAWIGFDVEGCHATREAVGTNLPLQLGFSTGVNLVAVPTGYVDTPNNTDFSRVSAKPPPGDQFKHLIPLMYKGLPWNVVRIKIVQMLSDTLKNLSDRVVFVLWAHGFELTSMKYFVKIGPERTCCLCDRRATCFSTASDTYACWHHSIGFDYVYNPFMIDVQQWGFTGNLQSNHDLYCQVHGNAHVASCDAIMTRCLAVHECFVKRVDWTIEYPIIGDELKINAACRKVQHMVVKAALLADKFPVLHDIGNPKAIKCVPQADVEWKFYDAQPCSDKAYKIEELFYSYATHSDKFTDGVCLFWNCNVDRYPANSIVCRFDTRVLSNLNLPGCDGGSLYVNKHAFHTPAFDKSAFVNLKQLPFFYYSDSPCESHGKQVVSDIDYVPLKSATCITRCNLGGAVCRHHANEYRLYLDAYNMMISAGFSLWVYKQFDTYNLWNTFTRLQ
B2: template-primer RNA (dsRNA)
RNA 1: CAUGCCAUGGCCUCUAAAAUGUCAGCUGCUCCCUAGCAUGCUACUACCGCGUAGCAUG
RNA 2: GCGGUAGUAGCAUGCUAGGGAGCAG
B3: nsp9-nsp10 fusion protein (other)
chain: NNELSPVALRQMSCAAGTTQTACTDDNALAYYNTTKGGRFVLALLSDLQDLKWARFPKSDGTGTIYTELEPPCRFVTDTPKGPKVKYLYFIKGLNNLNRGMVLGSLAATVRLQAGNATEVPANSTVLSFCAFAVDAAKAYKDYLASGGQPITNCVKMLCTHTGTGQAITVTPEANMDQESFGGASCCLYCRCHIDHPNPKGFCDLKGKYVQIPTTCANDPVGFTLKNTVCTVCGMWKGYGCSCDQLREPMLQ

Data set [1] addresses SARS-CoV-2 nsp12 (SARS-CoV-2, UniProt P0DTD1). Put plainly: cryo-EM structure.
In data set [2] the target is SARS-CoV-2 nsp13 (SARS-CoV-2, UniProt P0DTD1 5325-5925). Put plainly: cryo-EM structure.
For data set [3], the target named is nsp12 (RdRp with NiRAN);nsp7;nsp8;nsp9;nsp13 helicase;nsp10;nsp14 (ExoN / N7-MTase) (SARS-CoV-2;SARS-CoV-2;SARS-CoV-2;SARS-Co …, UniProt P0DTD1;P0DTD1;P0DTD1;P0DTD1;P0DTD1;P0DTD1;P0DTD1 …, ||||||). Kind of data set: cryo-EM structure.
Data set [4] has as its target B1. Kind of data set: SEC. For orientation: SEC sorts molecules by how far they enter the pores of the column.

As to B1, the binding result in data set [1] and in data set [2] was “binds” each time.

Consider B2, for which the binding result in data set [3] was “binds”.

As to B3, the binding result in data set [1] and in data set [4] was “binds” in each case.
